The RNAGym collection of RNA variant scans (doi:10.1101/gr.219683.116)

B1: mRNA-splicing (parent)
chain: AGUUGCUGCUGGGAGCUCCAGCACAGUGAAAUGGACAGAAGGGCAGAGCAA

Variants of: B1
Experiment: exon inclusion enrichment index; higher = more inclusion; WT1 exon 5 minigene, HEK293

Variant | exon inclusion enrichment index
C6A U7A C9A U10A G42U | 0.988
C6A U7A C9A U10A G42U G43A | 1.42
C6A U7A C9A U10A G42U G43C | 0.532
C6A U7A C9A U10A G42U G43U | 1.61
C6A U7A C9A U10A G43A | 2.02
C6A U7A C9A U10A G43A C44A | 1.84
C6A U7A C9A U10A G43A C44G | 2.4
C6A U7A C9A U10A G43A C44U | 0.656
C6A U7A C9A U10A G43C | 1
C6A U7A C9A U10A G43C C44A | 2.09
C6A U7A C9A U10A G43C C44G | 3.16
C6A U7A C9A U10A G43C C44U | 0.606
C6A U7A C9A U10A G43U | 0.644
C6A U7A C9A U10A G43U C44A | 0.0263
C6A U7A C9A U10A G43U C44G | 0.238
C6A U7A C9A U10A G43U C44U | 0.125
C6A U7A C9A U10A G46A | 0.993
C6A U7A C9A U10A G46A A47C | 1.64
C6A U7A C9A U10A G46A A47G | 0.249
C6A U7A C9A U10A G46A A47U | 0.928
C6A U7A C9A U10A G46C | 0.722
C6A U7A C9A U10A G46C A47C | 0.943
C6A U7A C9A U10A G46C A47G | 1.23
C6A U7A C9A U10A G46C A47U | 0.833

Variant | exon inclusion enrichment index
C6A U7A C9A U10A G46U | 0.388
C6A U7A C9A U10A G46U A47C | 1.79
C6A U7A C9A U10A G46U A47G | 0.587
C6A U7A C9A U10A G46U A47U | 1.03
C6A U7A C9A U10A G48A | 1.3
C6A U7A C9A U10A G48C | 1.15
C6A U7A C9A U10A G48U | 1.17
C6A U7A C9A U10A U17A | 0.63
C6A U7A C9A U10A U17A C18A | 0.427
C6A U7A C9A U10A U17A C18G | 0.498
C6A U7A C9A U10A U17A C18U | 0.445
C6A U7A C9A U10A U17C | 0.424
C6A U7A C9A U10A U17C C18A | 0.476
C6A U7A C9A U10A U17C C18G | 0.655
C6A U7A C9A U10A U17C C18U | 0.491
C6A U7A C9A U10A U17G | 0.51
C6A U7A C9A U10A U17G C18A | 0.619
C6A U7A C9A U10A U17G C18G | 0.391
C6A U7A C9A U10A U17G C18U | 0.46
C6A U7A C9A U10A U27A | 0.945
C6A U7A C9A U10A U27A G28A | 0.824
C6A U7A C9A U10A U27A G28C | 0.818
C6A U7A C9A U10A U27A G28U | 0.247
C6A U7A C9A U10A U27C | 1.97

Variant | exon inclusion enrichment index
C6A U7A C9A U10A U27C G28A | 0.886
C6A U7A C9A U10A U27C G28C | 1.36
C6A U7A C9A U10A U27C G28U | 0.4
C6A U7A C9A U10A U27G | 0.189
C6A U7A C9A U10A U27G G28A | 0.869
C6A U7A C9A U10A U27G G28C | 0.369
C6A U7A C9A U10A U27G G28U | 0.003
C6A U7A C9A U10A U32A | 0.442
C6A U7A C9A U10A U32A G33A | 0.234
C6A U7A C9A U10A U32A G33C | 0.991
C6A U7A C9A U10A U32A G33U | 0.298
C6A U7A C9A U10A U32C | 1.37
C6A U7A C9A U10A U32C G33A | 0.27
C6A U7A C9A U10A U32C G33C | 1.09
C6A U7A C9A U10A U32C G33U | 0.476
C6A U7A C9A U10A U32G | 0.041
C6A U7A C9A U10A U32G G33A | 0.11
C6A U7A C9A U10A U32G G33C | 0.75
C6A U7A C9A U10A U32G G33U | 0.178
C6A U7A C9A U10C | 2.59
C6A U7A C9A U10C G11A | 1.91
C6A U7A C9A U10C G11C | 4.28
C6A U7A C9A U10C G11U | 3.37
C6A U7A C9A U10G | 0.498

Variant | exon inclusion enrichment index
C6A U7A C9A U10G G11A | 1.24
C6A U7A C9A U10G G11C | 1.95
C6A U7A C9A U10G G11U | 1.14
C6A U7A C9G | 0.28
C6A U7A C9G U10A | 0.286
C6A U7A C9G U10C | 1.05
C6A U7A C9G U10G | 0.0939
C6A U7A C9U | 0.615
C6A U7A C9U U10A | 0.0203
C6A U7A C9U U10C | 1.36
C6A U7A C9U U10G | 0.0647
C6A U7A G8A C9A U10A | 0.207
C6A U7A G8A C9A U10C | 1.36
C6A U7A G8A C9G U10A | 0.2
C6A U7A G8A C9U U10A | 0.0156
C6A U7A G8A U10A | 0.0891
C6A U7A G8C C9A U10A | 0.471
C6A U7A G8C C9A U10C | 1.95
C6A U7A G8C C9G U10A | 0.781
C6A U7A G8C C9U U10A | 0.0222
C6A U7A G8C U10A | 0.371
C6A U7A G8U C9A | 0.467
C6A U7A G8U C9A U10A | 0.117
C6A U7A G8U C9A U10C | 1.38

Variant | exon inclusion enrichment index
C6A U7A G8U C9G U10A | 0.135
C6A U7A G8U C9U U10A | 0.00366
C6A U7A G8U U10A | 0.0805
C6A U7A U10A | 0.234
C6A U7A U10C | 2.53
C6A U7A U10G | 0.84
C6A U7C | 0.264
C6A U7C C9A | 1.99
C6A U7C C9A G11A | 0.337
C6A U7C C9A G11C | 2.88
C6A U7C C9A G11U | 2.1
C6A U7C C9A U10A | 1.36
C6A U7C C9A U10A G11A | 1.98
C6A U7C C9A U10A G11C | 2.78
C6A U7C C9A U10A G11U | 2.49
C6A U7C C9A U10C | 3.63
C6A U7C C9A U10C A14C | 3.07
C6A U7C C9A U10C A14C G15A | 2.13
C6A U7C C9A U10C A14C G15C | 1.7
C6A U7C C9A U10C A14C G15U | 2.32
C6A U7C C9A U10C A14G | 4.78
C6A U7C C9A U10C A14G G15A | 3.53
C6A U7C C9A U10C A14G G15C | 2.29
C6A U7C C9A U10C A14G G15U | 2.01

Variant | exon inclusion enrichment index
C6A U7C C9A U10C A14U | 1.94
C6A U7C C9A U10C A14U G15A | 2.06
C6A U7C C9A U10C A14U G15C | 2.67
C6A U7C C9A U10C A14U G15U | 2.08
C6A U7C C9A U10C A20C | 3.02
C6A U7C C9A U10C A20C G21A | 2.38
C6A U7C C9A U10C A20C G21C | 2.31
C6A U7C C9A U10C A20C G21U | 2.72
C6A U7C C9A U10C A20G | 3.85
C6A U7C C9A U10C A20G G21A | 3.72
C6A U7C C9A U10C A20G G21C | 3.34
C6A U7C C9A U10C A20G G21U | 1.35
C6A U7C C9A U10C A20U | 3.39
C6A U7C C9A U10C A20U G21A | 2.77
C6A U7C C9A U10C A20U G21C | 3.73
C6A U7C C9A U10C A20U G21U | 2.83
C6A U7C C9A U10C A23C | 3.27
C6A U7C C9A U10C A23C C24A | 3.49
C6A U7C C9A U10C A23C C24G | 4.61
C6A U7C C9A U10C A23C C24U | 2.26
C6A U7C C9A U10C A23G | 4.36
C6A U7C C9A U10C A23G C24A | 4.13
C6A U7C C9A U10C A23G C24G | 4.2
C6A U7C C9A U10C A23G C24U | 1.95

Variant | exon inclusion enrichment index
C6A U7C C9A U10C A23U | 2.78
C6A U7C C9A U10C A23U C24A | 1.89
C6A U7C C9A U10C A23U C24G | 3.98
C6A U7C C9A U10C A23U C24U | 0.978
C6A U7C C9A U10C A25C | 4.45
C6A U7C C9A U10C A25C G26A | 4.93
C6A U7C C9A U10C A25C G26C | 4.09
C6A U7C C9A U10C A25C G26U | 3.89
C6A U7C C9A U10C A25G | 4.53
C6A U7C C9A U10C A25G G26A | 5.01
C6A U7C C9A U10C A25G G26C | 4.03
C6A U7C C9A U10C A25G G26U | 4.03
C6A U7C C9A U10C A25U | 3.47
C6A U7C C9A U10C A25U G26A | 3.54
C6A U7C C9A U10C A25U G26C | 3.26
C6A U7C C9A U10C A25U G26U | 2.49
C6A U7C C9A U10C A29C | 3.21
C6A U7C C9A U10C A29C A30C | 3.72
C6A U7C C9A U10C A29C A30G | 4.07
C6A U7C C9A U10C A29C A30U | 2.76
C6A U7C C9A U10C A29G | 3.29
C6A U7C C9A U10C A29G A30C | 2.23
C6A U7C C9A U10C A29G A30G | 3.23
